In series [1] the test system is MS2 coat protein. As to the kind of experiment: apparent KD of MS2 coat protein; designed switch direction (-1 OFF switch, 1 ON switch): 1; higher = weaker reporter binding. To be noted: Eterna round: R98. The method, then:
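RNA-MaP: designed FMN/MS2 RNA switches (84 nt design region) are transcribed on-chip within common flanks and titrated with SNAP-549-labelled MS2 coat protein (about 1-3000 nM) in 100 mM Tris pH 7.5, 80 mM KCl, 4 mM MgCl2, without or with 200 uM FMN. Median apparent KD per design; activation ratio = KD,OFF / KD,ON.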

Series [2] deals with MS2 coat protein. Briefly: apparent KD of MS2 coat protein, switch OFF state (with FMN for OFF switches, without FMN for ON switches); designed switch direction (-1 OFF switch, 1 ON switch): 1; higher = weaker reporter binding. Conditions: FMN input: 0 or 200 uM; Eterna round: R93 (includes R88 designs). The method, boiled down:
(§1)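 Designed RNA switches were made by on-chip transcription from Illumina sequencing clusters and then titrated with SNAP-549-labelled MS2 coat protein. Twofold steps ran from 0.7 or 1.5 nM to 3 µM, each lasting 0.8–1.5 h early and 10–20 min late, in 100 mM Tris-HCl pH 7.5, 80 mM KCl, 4 mM MgCl2, without or with constant ligand. Apparent KD is the per-design median of normalised cluster binding-curve fits.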

In series [3] the test system is MS2 coat protein. Briefly: apparent KD of MS2 coat protein, switch ON state; designed switch direction (-1 OFF switch, 1 ON switch): 1; higher = weaker reporter binding. Conditions: FMN input: 0 or 200 uM; Eterna round: R93 (includes R88 designs). In short, it runs like this: as §1

For the sequence “GUAGCUAUCGCAGGAUAUCCUCAGGCGAAAGCCACAUGAGGAUCACCCAUGUAAAUAAAGAAUUUGGAGAAGGGCGAUAGCUAC [jl-sng2-2.34 Eli mod]”, the figures for the “apparent KD of MS2 coat protein” value in the series with MS2 coat protein [1] (input ligand: FMN 200 uM) and in the series on MS2 coat protein [1] (input ligand: none) were 24.7 nM and 374 nM, respectively.
For the sequence “GGACUCACUUGAGGAUAUCGAGUGGAUAACACUCGAGAAGGCAGGGAAACCUGAGGAUCACCCAGGUAAGAGUCCAAUAAUAAA [Same State NG1 - A3C, U17G Submission 2D]”, the figures for the “apparent KD of MS2 coat protein” value with MS2 coat protein [1] (input ligand: FMN 200 uM) and with MS2 coat protein [1] (input ligand: none) were 19.9 nM and 42.1 nM, respectively.
On to “UAGAUCACCGAAGGAUAUGGGCAGAGUCCCGCUACAUGAGGAUCACCCAUGUCAGUCGGUCGUUUUCAGAAGGUCGGAAUGAUU [Zadi]”, for which the “apparent KD of MS2 coat protein” value with MS2 coat protein [1] (input ligand: FMN 200 uM) amounted to 57.1 nM; in the series on MS2 coat protein [1] (input ligand: none) it was 19.4 nM.
The matching figures for “GGAGACCUCACAGGAUAUGCUGGACUUUGUCCAGCAGAAGGGUGAAAACAUGAGGAUCACCCAUGUAUGGUCUCCAAAUUUAAU [Denovo 57]”: 30.4 nM and 632 nM.
Consider “GGACAUGUCGUUUACAUGAGGAUCACCCAUGUCGAUGGACAUGAGGAUAUGGAUCCGAAUCGGAUCCAGAAGGCAUGCAUGUCC [SameState #7 NG3]”, for which the “apparent KD of MS2 coat protein” value in the series with MS2 coat protein [1] (input ligand: FMN 200 uM) came to 17.9 nM; in the series with MS2 coat protein [1] (input ligand: none), 45.2 nM.
The matching figures for “UCUGCUAUCGCAGGAUAUUACAUGGGAAAGAAUACAUGAGGAUCACCCAUGUAAAAGAUCAUAAAUAAGAAGGGCGAUAGCAGA [Lame State 7 - Jieux - Same State NG 2]”: 116 nM and 1530 nM.
As to “AUUACAUGAGGAUCACCCAUGUACAGAACGUUUCAUUAAAGUGAGGAUAUACGAAAUUUAAAAGCGUAGAAGGCACUGGGUACA [SameState #43 NG3]”, the figures for the “apparent KD of MS2 coat protein” value in the series on MS2 coat protein [1] (input ligand: FMN 200 uM) and in the series on MS2 coat protein [1] (input ligand: none) were 24.2 nM and 27.8 nM, respectively.
For “UGGAGACAUGAGGAUCACCCAUGUGAGAAGAGGCGAGGAUAUCGAAAGAAAGAAGAGAAACGAGAAGGCGCGAGGC [salish99-SS1-047]”, the “apparent KD of MS2 coat protein” value turned out to be 27.6 nM in the series with MS2 coat protein [2] and 43.3 nM in the series on MS2 coat protein [3].
Consider “AAGAAACAUGAGGAUCACCCAUGUACCCAAAAGGGAGGAUAUGCGAAAGAAAGAAAGAAAGCAGAAGGCCCAUGAA [Artaxerxes I Longhand]”, for which the results for the “apparent KD of MS2 coat protein” value in the series on MS2 coat protein [2] and in the series with MS2 coat protein [3] were 25.3 nM and 13.9 nM, respectively.
The matching figures for “GAUGACAUAGUACAGGAUAUAUGAAUAGUCACAUGAGGAUCACCCAUGUGCAUUUAUAUGCGCACAUAGAAGGGUGGUAGUGAUC [Mat - Same state - Malcolm Mod - D126]”: 49.8 nM and 79.9 nM.
The matching figures for “CGGAGACAUGAGGAUCACCCAUGUGAGAAGAGGCGAGGAUAUCGAAAGAAAGAAGAGAAACGAGAAGGCGCGAGUU [salish99-SS1-070]”: 34.5 nM and 21.5 nM.
The matching figures for “AGGAAACAUGAGGAUCACCCAUGUAAAAAUAUGGGAGGAUAUACGAAAAAAAAAAAAAAAGUAGAAGGCCUAAAAG [Garnet 10]”: 231 nM and 101 nM.
For the sequence “UAAUAAUAAACCAAGGAUAUGGAGUAUAGAACAUGAGGAUCACCCAUGUGUAGCGUGGAAUAGUACCAGAAGGUGGAGUGAAAUG [JR_SS002_Sub1002]”, the “apparent KD of MS2 coat protein” value with MS2 coat protein [2] amounted to 49.8 nM; with MS2 coat protein [3], 39.1 nM.
The matching figures for “GGGAGGAAGAGAGAGGAUAUCCAAAGGAAAACAUGAGGAUCACCCAUGUAAAAGGUAGGAAAUUGGGAGAAGGCUCAAGAGAAUG [salish99-ss2-055]”: 28.3 nM and 24.1 nM.
The matching figures for “GAGAGACAUGAGGAUCACCCAUGUAGGAUUAUGGGAGGAUAUACAAAGACGAGAGUCAGAGUAGAAGGCCUAGGAG [salish99-ss1-139]”: 75.6 nM and 25.4 nM.
The matching figures for “AACGAACAUGAGGAUCACCCAUGUUCCAACAGUUGAGGAUAUGUGGGUGAAAAUAGCACGGCAGAAGGCGAGUGUA [SameState1 Malc#21]”: 49.8 nM and 70.2 nM.
For the sequence “AGAAAUAAAAGACAGGAUAUCCAAAAGAAAACAUGAGGAUCACCCAUGUAAAGAAAAUAAAAAUGGGAGAAGGGUCAAAUAAAAA [Mat - Same State 2 - JL mod - D49]”, the “apparent KD of MS2 coat protein” value in the series with MS2 coat protein [2] came out at 33.9 nM; in the series on MS2 coat protein [3], 34.4 nM.
The matching figures for “AUGGUCAAGUGUGAGGAUAUCCAGGCUCCCACAUGAGGAUCACCCAUGUCUUAAAGGGCGUAAAGGGAGAAGGUACGAACGCCAC [Diatenat]”: 46.8 nM and 35.6 nM.
In the case of “AAAAACAUGGUGUAGGAUAUAUUAAUAGUCACAUGAGGAUCACCCAUGUUCAGAUAUCUGAACGAGUAGAAGGACGAUGAAAAAA [Mat - Same state - Malcolm Mod - D109]”, the “apparent KD of MS2 coat protein” value worked out at 349 nM with MS2 coat protein [2] and 454 nM in the series with MS2 coat protein [3].
As for “AGAAAUAAACCUCAGGAUAUGGGUAAAUAAACAUGAGGAUCACCCAUGUAAAAGAAAAUAAAAAACCAGAAGGGAGAAAAUAAGA [Designing denovo 1]”, the entries for the “apparent KD of MS2 coat protein” value in the series with MS2 coat protein [2] and in the series on MS2 coat protein [3] were 24.1 nM and 10.4 nM, respectively.
In the case of “AAAAGACAUGAGGAUCACCCAUGUAAAGACAUAGGAGGAUAUGUCAUGAAAAAAGACUUGACAGAAGGCCUUUGUC [SS1 - 50]”, the “apparent KD of MS2 coat protein” value in the series on MS2 coat protein [2] and in the series on MS2 coat protein [3] was 20.4 nM each time.
Turning to “AAGAAACAUGAGGAUCACCCAUGUAAGAUAAACACAGGAUAUGCGAAAAUAAACAAAUAAGCAGAAGGGUGAAGAA [Mat - Same State 1 - Tesla mod - 65]”, the figures for the “apparent KD of MS2 coat protein” value with MS2 coat protein [2] and in the series on MS2 coat protein [3] were 28.1 nM and 19.5 nM, respectively.
The matching figures for “AAAAAACAUGAGGAUCACCCAUGUGGGAAUAUGGAAGGAUAUACAAAGACGAAAGUCAAAGUAGAAGGUCUAAAAG [76%, Meechl 2]”: 41.9 nM and 39.6 nM.
For the sequence “GACAAACAUGAGGAUCACCCAUGUAGAAAUAUGGGAGGAUAUACACAGACGAAAGUCAAAGUAGAAGGCCUACAAG [77%, Mat - Mod of Eli - With 3 more C's]”, the “apparent KD of MS2 coat protein” value in the series on MS2 coat protein [2] stood at 103 nM; with MS2 coat protein [3], 25.9 nM.
The matching figures for “CCCAUACAUGAGGAUCACCCAUGUUUUAUUAACAGAGGAUAUAUAGGUGAAACAAACAACAUAGAAGGCUGCCCAA [Default title]”: 53.2 nM and 34.2 nM.
The matching figures for “AGAAAUAAAAGAGAGGAUAUUCAAAAGAAAACAUGAGGAUCACCCAUGUAAAAGAAAAUAAAUGGGAAGAAGGCUCAAAAUAAAG [Modifying JL's highscorer - Moving the G segment - Variant 2]”: 26.2 nM and 24.8 nM.
The matching figures for “AAAAGACAUGAGGAUCACCCAUGUCUUCGGACAUGAGGAUAUGUACAGACUUCGGUCUGUACAGAAGGCAUAAAAA [SS1 - 1062]”: 82.2 nM and 21.1 nM.
On to “GAUAGACAUGAGGAUCACCCAUGUAGAAUUAUGGGAGGAUAUACAAAGACGAGAGUCAGAGUAGAAGGCCUAGGAA [salish99-ss1-156]”, for which the “apparent KD of MS2 coat protein” value in the series on MS2 coat protein [2] was determined as 64.6 nM; with MS2 coat protein [3], 24.5 nM.
The matching figures for “AAGAAAGAAACAUAGGAUAUCAAGGAUAUAACAUGAGGAUCACCCAUGUAAAUACGAAAGUAUAAUGAGAAGGAUGGAUGAUCUAC [Meechl MS2 SS2 3]”: 79.5 nM and 200 nM.
The matching figures for “AAAACACAUGAGGAUCACCCAUGUAAAAACAUGGGAGGAUAUGCUUGGAAAACAUGCUAUGCAGAAGGCUCAAGUG [SS1 - 12]”: 46.4 nM and 72.6 nM.
“AUAAGAAAAACACAGGAUAUCCAAAAGAAAACAUGAGGAUCACCCAUGUAAAGAAAAUAAAAAUGGGAGAAGGGUGAAAAUAAUA [Mat - Same State 2 - JL mod - D32]”: the “apparent KD of MS2 coat protein” value in the series on MS2 coat protein [2] is 62.2 nM; in the series on MS2 coat protein [3] it was 28.1 nM.
Regarding “GCGGUGCAGGUACAGGAUAUGUUGCUCGUAACAUGAGGAUCACCCAUGUACCUAUGAGAUUAAAUGCAGAAGGGUGCACACCACG [Oneratle]”, the figures for the “apparent KD of MS2 coat protein” value with MS2 coat protein [2] and with MS2 coat protein [3] were 574 nM and 47.2 nM, respectively.
The matching figures for “UAGGGAACAGGGUAGGAUAUGCAUGGUCGUACAUGAGGAUCACCCAUGUAGCCUAGAAAAUAAAUGCAGAAGGGCCAAAAGAAAA [Raritea]”: 67.1 nM and 39.8 nM.
The matching figures for “AGAAAAGAAAGUAAGGAUAUGCAUAAUAAAACAUGAGGAUCACCCAUGUUAAAAAAAAGAUCAUGGUAGAAGGUACAAAAGAAAG [SS2 M 36]”: 12.3 nM and 17 nM.
For “AAUAAGACUAGCAAGGAUAUCGAAAACGAGACAUGAGGAUCACCCAUGUAACAAGUAAAAGUAAACGAGAAGGUGCAGGGUGAAA [JR_SS002_Sub301]”, the “apparent KD of MS2 coat protein” value in the series on MS2 coat protein [2] is 80 nM; in the series on MS2 coat protein [3], 56.9 nM.
With “AGAAAUAAAAGAGAGGAUAUCCAAAAGAAAACAUGAGGAUCACCCAUGUAAAAGAAAAUAAAAUGGGAGAAGGCUCACAUAAAGA [Topaz 34]”, the “apparent KD of MS2 coat protein” value amounted to 37.4 nM in the series with MS2 coat protein [2] and 21.1 nM in the series on MS2 coat protein [3].

The values above are taken from the supplement of paper PMC9170038.
